# Measured values reported in article PMC5382265, “Macrocycle peptides delineate locked-open inhibition mechanism for microorganism phosphoglycerate mutases” (Nature Communications, 2017).
# Target: C. elegans cofactor-independent phosphoglycerate mutase (iPGM) (C. elegans) (UniProt G5EFZ1)
substance,measurement,value
Ce-2S (Ce-2 with Cys14Ser) (peptide),"IC50 of inhibition of PGM activity, enzyme-coupled bioluminescent assay",10 nM
